Measurements: article PMC10275983 (Nature Communications, 2023)
No end group written: not given here.

target: S1-RBD (ACROBiosystems SPD-C82E9) (SARS-CoV-2 (Wuhan-Hu-1 strain), UniProt P0DTC2 319-541); assay: SPR; details: both partners purified

Row | Binder | binding result
1 | ACEYVGPMCYRLYCA (not fully specified (bridges); also: Bicycle) [E1 Bicycle (exemplar of epitope group 1)] | binds
2 | ACPYVAGRGTCLLCA (not fully specified (bridges); cysteine pairing not given here) [E2 Bicycle (canonical exemplar of epitope group 2)] | binds
3 | ACANPDNPVCRFYCA (not fully specified (bridges); also: bicyclic peptide, scaffold not named) [E5 Bicycle (canonical exemplar of epitope group 5)] | binds
4 | ACEDNDWVYCSTCA (not fully specified (bridges); also: bicyclic peptide, scaffold not named) [E3 Bicycle (exemplar of epitope group 3)] | binds
